Measured values as given in patent US20200190189A1 (Adimab, published 2020).
Numbering of substitutions follows the chain as printed. Values belong to the binder of their own block, whether it stands above or below them.

Columns and labels:
[1] = target: T1, Human CD3εδ heterodimeric Fc fusion (Hu CD3εδ Fc) (human); assay: IgG, avid; method not named at the table (ForteBio BLI in Methods)
T1 chain 1: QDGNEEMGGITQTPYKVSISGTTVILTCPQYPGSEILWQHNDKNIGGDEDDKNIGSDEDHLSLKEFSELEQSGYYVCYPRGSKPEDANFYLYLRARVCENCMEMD
T1 chain 2: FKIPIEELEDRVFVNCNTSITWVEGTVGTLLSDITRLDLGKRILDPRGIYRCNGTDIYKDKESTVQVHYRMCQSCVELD

[2] = target: T2, Cynomolgus CD3εδ heterodimeric Fc fusion (Cy CD3εδ Fc) (cynomolgus); assay: as above
T2 chain 1: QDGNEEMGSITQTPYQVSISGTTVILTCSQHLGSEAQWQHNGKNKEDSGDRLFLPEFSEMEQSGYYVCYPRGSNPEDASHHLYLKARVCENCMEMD
T2 chain 2: T1 chain 2 with I5V, N15K, I20V, S32T, D33N, I34N, T64A, S74N

Kd [1]: 0.2 nM | Kd [2]: 0.22 nM
B1: ADI-22523 IgG1 (antibody, V domains shown)
VH: QVQLVQSGAEVKKPGASVKVSCKASGFNIKDYYMHWVRQAPGQRLEWMGWIDLENGNTIYDPKFQGRVTITRDTSASTAYMELSSLRSEDTAVYYCARDGYGRYFYDVWGQGTLVTVSS
VL: DIVMTQSPDSLAVSLGERATINCKSSQSLLNSRTGKNYLAWYQQKPGQPPKLLIYWASTRESGVPDRFSGSGSGTDFTLTISSLQAEDVAVYYCKQSYSRRTFGGGTKVEIK

Kd [1]: 1.6 nM | Kd [2]: 0.25 nM
B2: ADI-26906 IgG1 (antibody, V domains shown)
VH: B1 VH with G56A, P62A, G100A
VL: B1 VL with S32A

Kd [1]: 2.2 nM | Kd [2]: 0.4 nM
B3: ADI-26913 IgG1 (antibody, V domains shown)
VH: B1 VH with G56A, P62A, G100Q
VL: B1 VL with S32A

Kd [1]: 1.5 nM | Kd [2]: 0.31 nM
B4: ADI-26908 IgG1 (antibody, V domains shown)
VH: B1 VH with N55E, P62A, G100A
VL: B1 VL with S32A

Kd [1]: 3.3 nM | Kd [2]: 2.6 nM
B5: ADI-26915 IgG1 (antibody, V domains shown)
VH: B1 VH with N55E, P62A, G100V, Y101L
VL: B1 VL with S32A
